Test results taken from patent US20040006018A1 (Genentech, published 2004).

How the values were obtained:
[1] = target: T1, OSM specific receptor (oncostatin M receptor) on human WI-26 VA4 cells (human, UniProt Q99650 28-979); test: competition for 125I-human OSM binding to WI-26 VA4 cells
T1 construct: whole, on cells; Endogenous receptor on cells; further subunits not described for this assay; also called specific OSM Receptor; WI-26 cells
T1 sequence (looked up): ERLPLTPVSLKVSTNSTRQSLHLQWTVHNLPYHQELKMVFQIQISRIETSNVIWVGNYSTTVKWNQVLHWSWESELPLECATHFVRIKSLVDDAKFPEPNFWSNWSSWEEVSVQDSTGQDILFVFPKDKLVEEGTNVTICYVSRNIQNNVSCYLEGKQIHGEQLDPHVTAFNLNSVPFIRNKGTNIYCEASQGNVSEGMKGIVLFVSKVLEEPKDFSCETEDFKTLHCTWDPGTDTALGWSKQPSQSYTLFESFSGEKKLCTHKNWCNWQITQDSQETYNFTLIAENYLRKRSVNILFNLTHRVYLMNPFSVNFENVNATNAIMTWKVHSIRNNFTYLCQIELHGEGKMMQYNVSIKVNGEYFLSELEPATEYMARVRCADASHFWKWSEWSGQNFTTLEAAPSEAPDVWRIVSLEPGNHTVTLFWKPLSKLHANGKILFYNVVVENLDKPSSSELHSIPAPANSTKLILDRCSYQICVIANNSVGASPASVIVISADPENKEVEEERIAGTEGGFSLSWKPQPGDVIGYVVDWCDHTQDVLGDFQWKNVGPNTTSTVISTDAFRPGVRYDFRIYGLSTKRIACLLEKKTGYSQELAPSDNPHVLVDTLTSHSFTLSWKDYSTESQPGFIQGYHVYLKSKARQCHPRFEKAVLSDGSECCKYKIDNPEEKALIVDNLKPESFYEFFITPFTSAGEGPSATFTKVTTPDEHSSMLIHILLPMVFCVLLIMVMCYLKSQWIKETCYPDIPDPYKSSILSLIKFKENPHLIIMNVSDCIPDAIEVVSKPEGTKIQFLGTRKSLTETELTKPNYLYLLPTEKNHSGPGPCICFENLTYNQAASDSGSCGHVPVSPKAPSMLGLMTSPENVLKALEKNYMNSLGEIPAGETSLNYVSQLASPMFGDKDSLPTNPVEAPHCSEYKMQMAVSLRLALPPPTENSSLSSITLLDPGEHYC

[2] = target: T2, Human LIF receptor on human Hela cells (human, UniProt P42702 45-1097); test: conditioned medium competing for 125I-human LIF binding to Hela cells
T2 construct: whole, on cells; Endogenous receptor on cells; other subunits (gp130) not examined on these cells
T2 sequence (looked up): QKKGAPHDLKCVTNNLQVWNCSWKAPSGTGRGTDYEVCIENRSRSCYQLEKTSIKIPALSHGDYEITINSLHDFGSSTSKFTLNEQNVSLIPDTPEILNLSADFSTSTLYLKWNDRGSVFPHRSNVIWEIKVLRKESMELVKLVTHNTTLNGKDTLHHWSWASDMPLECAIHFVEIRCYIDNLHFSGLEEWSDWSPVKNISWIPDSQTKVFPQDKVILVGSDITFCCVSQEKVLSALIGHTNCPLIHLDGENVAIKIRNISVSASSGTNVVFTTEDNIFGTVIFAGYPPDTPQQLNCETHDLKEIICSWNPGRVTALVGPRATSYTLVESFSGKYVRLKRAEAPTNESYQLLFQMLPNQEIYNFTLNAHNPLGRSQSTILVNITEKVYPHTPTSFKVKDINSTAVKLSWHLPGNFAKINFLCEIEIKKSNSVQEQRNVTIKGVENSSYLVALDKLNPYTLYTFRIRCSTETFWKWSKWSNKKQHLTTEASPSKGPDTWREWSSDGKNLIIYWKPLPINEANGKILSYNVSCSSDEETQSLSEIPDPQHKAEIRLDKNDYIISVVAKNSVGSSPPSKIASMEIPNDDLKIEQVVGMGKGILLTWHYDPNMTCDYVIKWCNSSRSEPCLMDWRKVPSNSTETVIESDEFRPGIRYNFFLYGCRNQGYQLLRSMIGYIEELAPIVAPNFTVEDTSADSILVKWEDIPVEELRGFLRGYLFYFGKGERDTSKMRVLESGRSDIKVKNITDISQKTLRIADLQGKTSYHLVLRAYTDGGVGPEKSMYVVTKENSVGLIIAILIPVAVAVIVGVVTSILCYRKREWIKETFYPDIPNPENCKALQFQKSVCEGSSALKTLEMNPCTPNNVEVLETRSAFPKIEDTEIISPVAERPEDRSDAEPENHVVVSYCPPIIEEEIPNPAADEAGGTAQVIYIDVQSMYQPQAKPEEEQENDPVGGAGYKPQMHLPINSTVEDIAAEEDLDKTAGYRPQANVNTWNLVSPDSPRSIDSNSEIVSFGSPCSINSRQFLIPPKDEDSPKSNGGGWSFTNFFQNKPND

[3] = target: T3, Mouse LIF receptor on mouse M1 cells (LIF receptor complex with gp130) (mouse, UniProt P42703 44-1092; Q00560 23-917); test: conditioned medium competing for 125I-human LIF binding to M1 cells
T3 construct: whole, on cells; Endogenous receptor on M1 cells; also called LIFRβ
T3 sequence (Q00560 23-917, one chain of several): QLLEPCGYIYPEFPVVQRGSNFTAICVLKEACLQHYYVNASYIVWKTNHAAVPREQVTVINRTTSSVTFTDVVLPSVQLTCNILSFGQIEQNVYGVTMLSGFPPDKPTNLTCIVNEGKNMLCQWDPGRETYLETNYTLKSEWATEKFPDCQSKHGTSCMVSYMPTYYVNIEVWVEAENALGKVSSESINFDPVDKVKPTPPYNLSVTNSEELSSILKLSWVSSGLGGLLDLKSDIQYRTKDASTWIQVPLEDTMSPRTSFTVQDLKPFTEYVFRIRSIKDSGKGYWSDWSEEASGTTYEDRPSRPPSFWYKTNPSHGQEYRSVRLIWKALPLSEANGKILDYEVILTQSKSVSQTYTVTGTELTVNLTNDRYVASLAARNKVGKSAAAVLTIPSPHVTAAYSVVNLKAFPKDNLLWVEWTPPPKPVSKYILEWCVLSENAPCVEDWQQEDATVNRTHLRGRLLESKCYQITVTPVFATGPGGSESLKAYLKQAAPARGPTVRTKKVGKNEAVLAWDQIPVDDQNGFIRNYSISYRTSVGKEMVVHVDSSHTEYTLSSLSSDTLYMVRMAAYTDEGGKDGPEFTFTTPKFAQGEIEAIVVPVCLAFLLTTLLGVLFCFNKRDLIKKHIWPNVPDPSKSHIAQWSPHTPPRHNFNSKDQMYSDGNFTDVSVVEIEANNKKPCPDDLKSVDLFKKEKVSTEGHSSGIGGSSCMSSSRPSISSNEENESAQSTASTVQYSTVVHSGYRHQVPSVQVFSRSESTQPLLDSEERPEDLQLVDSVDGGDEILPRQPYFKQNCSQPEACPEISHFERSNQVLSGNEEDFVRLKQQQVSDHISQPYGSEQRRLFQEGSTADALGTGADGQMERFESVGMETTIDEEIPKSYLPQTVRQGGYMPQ

B1: Human CT-1 (conditioned medium from human 293 cells transfected with pRK5.hu.CT1) (ligand)
chain: MSRREGSLEDPQTDSSVSLLPHLEAKIRQTHSLAHLLTKYAEQLLQEYVQLQGDPFGLPSFSPPRLPVAGLSAPAPSHAGLPVHERLRLDAAALAALPPLLDAVCRRQAELNPRAPRLLRRLEDAARQARALGAAVEALLAALGAANRGPRAEPPAATASAASATGVFPAKVLGLRVCGLYREWLSRTEGDLGQLLPGGSA
notes: Not purified: tested as clarified conditioned medium (concentrated 10 fold and added at a 3-fold dilution for Hela cells; unconcentrated for WI-26 cells); also called human cardiotrophin-1; hCT-1
binding result [1]: no binding | binding result [2]: binds | binding result [3]: binds
